Here are results for one molecule from patent CN116917323A.

The target in test [1] is T1, 重组人B7-H4蛋白(R&D Systems#6576-B7-050) (human) (UniProt Q7Z7D3).
T1 sequence (looked up): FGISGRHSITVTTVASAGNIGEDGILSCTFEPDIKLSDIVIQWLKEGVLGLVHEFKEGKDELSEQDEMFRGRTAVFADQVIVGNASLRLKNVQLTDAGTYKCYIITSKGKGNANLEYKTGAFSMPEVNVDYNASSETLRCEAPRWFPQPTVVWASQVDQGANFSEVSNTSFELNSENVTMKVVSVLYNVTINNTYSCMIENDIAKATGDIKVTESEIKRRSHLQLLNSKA
Briefly: BLI (Octet), antibody on anti-human Fc sensor, recombinant human B7-H4 as analyte, 25 °C. On the technique in general: In BLI a coated tip is dipped into the sample, and binding shifts an interference pattern.

Test [2] concerns the target T2, 人B7-H4 (细胞表面B7-H4) (human) (UniProt Q7Z7D3).
T2 sequence (looked up): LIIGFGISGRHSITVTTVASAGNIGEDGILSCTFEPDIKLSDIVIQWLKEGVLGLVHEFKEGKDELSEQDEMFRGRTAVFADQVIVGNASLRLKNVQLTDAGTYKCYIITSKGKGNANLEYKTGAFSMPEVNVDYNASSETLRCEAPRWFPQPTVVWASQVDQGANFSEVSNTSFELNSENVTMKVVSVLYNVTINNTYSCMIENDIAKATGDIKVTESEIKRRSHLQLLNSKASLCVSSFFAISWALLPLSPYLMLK
Briefly: flow cytometry on MX-1 cells. For orientation: A flow cytometer gives signals particle by particle.

Test [3] addresses T2, 人B7-H4 (细胞表面B7-H4) (human). Briefly: flow cytometry on HCC1569 cells.

B1: 1D11抗体 (antibody, from another filing, V domains shown)
VH: QVQLQQSGAELVRPGTSVKMSCKASGYTFTSYWIGWAKQRPGHGFEWIGDIYPGGGYTNYNEKFKGKATLTADKSSSTAYMQFSSLTSEDSAIYYCARLDGSSYRGAMDSWGQGTSITVSS
VL: DIQMTQSPSSLSASLGGKVTITCKASQGFNKYVAWYQHKPGQCPRLLIHYTSTLQPGIPARFSGSGSGRDYSFSISNLEPEDSATYFCLQYGNLLYAFGGGTKLEIKR
Broadly, the EC50 is the concentration needed to bring the measured effect to its halfway point. As to B1, the K d, fold lower than that of B4-H4 2F9 in test [1] was over 100 fold. In addition, the EC50 amounted to 4.9 nM in test [2] and 3.44 nM in test [3].
